{
  "source": "patent US20250074980A1",
  "about": "(BRIGHAM AND WOMEN S HOSPITAL, published 2025)",
  "binders": {"B1": {"name": "chimeric antibody VH0/Vκ0 (antibody, IgG4, V domains shown)", "VH": "EVQLVESGGDLVKPGGSLKLACAASGFIFSSHGMSWVRQTPDKRLEWVATISSGGTYTYYPDSVKGRFTISRDNDKNTLYLQMNSLKSEDTAMYYCARHDFDYDAAWFAYWGQGTLVTVSS", "VL": "QIVLTQSPALMSASPGVKVTMTCSANSSVSYMYWYRQKPRSSPKPWIYLTSNLASGVPARFSGSGSGTSYSLTISSMEAEDAATYYCQQWSSNPPTFGSGTKLEIK", "notes": "IgG4 (S241P), kappa; also called VH0/Vκ0 (control); Chimeric VH0/Vκ0"}, "B2": {"name": "VH1/Vκ8 S29A (antibody, IgG4, V domains shown)", "VH": "B1 VH with V5L, D10G, K13Q, K19R, A21S, T40A, D42G, R44G, D75S, S88A", "VL": "EIVLTQSPATLSLSPGERATLSCRANSAVSYMYWYQQKPGQAPRPWIYLTSNRATGVPARFSGSGSGTDYTLTISSLEPEDFAVYYCQQWSSNPPTFGQGTKLEIK", "notes": "IgG4 (S241P), kappa; also called Parent; Parent (VH1/Vκ8 S29A)"}, "B3": {"name": "CP08H03/CP08F05 (antibody, V domains shown)", "VH": "EVQLLESGGGLVQPGGSLRLSCAASGFIFSSHGMSWVRQAPGKGLEWVATISSGGTYTYYPDSVKGRFTISRDNSKNTLYLQMNSLKAEDTAMYYCARHDFDYFPYWFAHWGQGTLVTVSS", "VL": "B2 VL with S91T", "notes": "IgG4 (S241P), kappa"}, "B4": {"name": "CP08H03/Vκ8 S29A (antibody, IgG4, V domains shown)", "VH": "B3 VH", "VL": "B2 VL", "notes": "IgG4 (S241P), kappa; also called CP08_H03/Parent VL; CP08_H03/Parental"}},
  "key": {"[1]": {"target": "T1, CEACAM6 (recombinant protein) (human, UniProt P40199 35-320)", "T1 construct": "construct not described", "T1 sequence (looked up)": "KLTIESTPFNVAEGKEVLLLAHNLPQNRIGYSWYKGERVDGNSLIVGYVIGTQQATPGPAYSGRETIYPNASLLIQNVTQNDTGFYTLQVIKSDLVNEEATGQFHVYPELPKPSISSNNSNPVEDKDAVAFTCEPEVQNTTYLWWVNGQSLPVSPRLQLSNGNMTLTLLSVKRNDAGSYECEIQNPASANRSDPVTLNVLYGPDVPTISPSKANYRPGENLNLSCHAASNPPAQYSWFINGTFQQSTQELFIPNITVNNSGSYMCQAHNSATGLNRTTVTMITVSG", "assay": "SPR single-cycle kinetics, antibody captured on Protein A, CEACAM-6 injected at three rising concentrations [Cont.]", "protocol": "(§1) In order to assess the binding of the humanized, affinity matured reformatted lead IgGs, single-cycle kinetics analysis was performed on crude supernatants using a Biacore T200 running Biacore T200 Control Software V2.0.1 and Biacore T200 Evaluation Software V3.0. Antibodies were diluted in HBS-P+ to a final concentration of 0.5 μg/ml. At the start of each cycle, antibodies were loaded onto Fc2, Fc3 and Fc4 of the Protein A chip. IgGs were captured at a flow rate of 10 μl/min to give an immobilisation level (RL) of ˜100 RU (a level calculated to obtain a Rₘₐₓ of ˜50-150 RU once the analyte is bound). The surface was then allowed to stabilize. Single-cycle kinetics data was obtained with CEACAM1 as the analyte at a flow rate of 80 μl/min to minimize any potential mass transfer effects. Multiple repeats with the parent (VH1/Vκ8 S29A) antibody were performed to check the stability of the surface and analyte over the kinetic cycles. The signal from the reference channel Fc1 (no antibody) was subtracted from that of Fc2, Fc3 and Fc4 to correct for differences in non-specific binding to the reference surface. A three point, two-fold dilution range from 70 nM to 280 nM CEACAM1 without regeneration between each concentration was used. The signal from each antibody blank run (no CEACAM1) was subtracted to correct for differences in surface stability. The association phase for the three injections of increasing concentrations of CEACAM1 was monitored for 80 seconds each time and a single dissociation phase was measured for 150 seconds following the last injection of CEACAM1. Regeneration of the Protein A surface was conducted using two injections of 10 mM glycine-HCL pH 1.5 followed by a stabilization period of 250 seconds.\nTo further assess the binding selectivity of CEACAM1 antibodies VH0/Vκ0, CP08H03/Vκ8 S29A, CP08H03/CP08F05 CEACAM1 over other proteins, binding affinities to CEACAM1, CEACAM3, CEACAM5, and CEACAM6 were compared using single-cycle kinetics analysis performed as described above. Single cycle kinetics was conducted using CEACAM concentrations from 280 nM to 70 nM."}, "[2]": {"target": "T2, CEACAM5 on transfected HeLa cells (human, UniProt P06731 35-685)", "T2 construct": "whole, on cells; also called HeLa-CEACAM5; HeLa C5", "T2 sequence (looked up)": "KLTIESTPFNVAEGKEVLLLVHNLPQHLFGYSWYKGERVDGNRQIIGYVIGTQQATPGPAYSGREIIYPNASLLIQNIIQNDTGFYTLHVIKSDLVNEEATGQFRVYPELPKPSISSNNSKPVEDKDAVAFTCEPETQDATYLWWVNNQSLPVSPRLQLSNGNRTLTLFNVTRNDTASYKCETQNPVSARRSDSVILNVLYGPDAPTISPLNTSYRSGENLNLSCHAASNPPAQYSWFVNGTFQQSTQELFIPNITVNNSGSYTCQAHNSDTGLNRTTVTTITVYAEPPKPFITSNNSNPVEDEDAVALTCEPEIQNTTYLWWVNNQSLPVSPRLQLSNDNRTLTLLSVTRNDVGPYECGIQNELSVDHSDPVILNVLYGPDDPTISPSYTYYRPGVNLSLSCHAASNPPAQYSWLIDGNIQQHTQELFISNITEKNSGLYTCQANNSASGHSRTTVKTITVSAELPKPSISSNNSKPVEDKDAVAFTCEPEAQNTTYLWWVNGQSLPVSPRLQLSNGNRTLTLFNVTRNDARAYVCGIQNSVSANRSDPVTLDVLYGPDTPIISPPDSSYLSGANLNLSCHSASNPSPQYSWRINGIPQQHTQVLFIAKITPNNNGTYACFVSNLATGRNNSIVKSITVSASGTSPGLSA", "assay": "flow cytometry, HeLa-CEACAM5 transfectants, % staining, stacked bars", "text": "(§2) FIG. 11 illustrates the binding selectivity of different affinity-matured CEACAM1 antibodies. […] HELA cells were transfected with vector alone (HeLa-Neo) or vectors expressing CEACAM1, CEACAM3, CEACAM5, or CEACAM6, respectively, and stained with the indicated antibodies. […] MOPC=mouse IgG1 control antibody. Mouse antibodies as positive control for transfected CEACAM isoforms: Col-1=CEACAM3 and CEACAM5 antibody. 9A6=CEACAM6 antibody. T84.1=CEACAM cross-reactive antibody and T84.66=CEACAM5 antibody. Only 2nd FITC=No primary antibody, only secondary FITC conjugated antibody. […] Data for affinity-matured antibodies 9B3_8H3/Vκ8 S29A, 8H3_9B3/CP08_E05, and 8H3_9C2/CPO08_F05, as well as data for CEACAM8 antibody 80H3 were omitted from the FIG. due to an unusually high background signal."}, "[3]": {"target": "T3, CEACAM3 on transfected HeLa cells (human, UniProt P40198 35-252)", "T3 construct": "whole, on cells; also called HeLa-CEACAM3; HeLa C3", "T3 sequence (looked up)": "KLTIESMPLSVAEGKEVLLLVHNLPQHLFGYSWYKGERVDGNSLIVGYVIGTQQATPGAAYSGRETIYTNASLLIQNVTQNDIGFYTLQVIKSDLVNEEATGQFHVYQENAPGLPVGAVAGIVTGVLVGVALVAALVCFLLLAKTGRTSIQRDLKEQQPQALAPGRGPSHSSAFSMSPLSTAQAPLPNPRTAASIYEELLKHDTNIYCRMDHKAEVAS", "assay": "flow cytometry, HeLa-CEACAM3 transfectants, % staining, stacked bars", "text": "as §2"}, "[4]": {"target": "T4, CEACAM5 (recombinant protein) (human, UniProt P06731 35-685)", "T4 construct": "construct not described", "T4 sequence (looked up)": "T2 sequence (looked up)", "assay": "SPR single-cycle kinetics, antibody captured on Protein A, CEACAM-5 injected at three rising concentrations [Cont.]", "protocol": "as §1, with “A three point, two-fold dilution range from 70 nM to 280 nM CEACAM1 without regeneration between each concentration was used. The signal from each antibody blank run (no CEACAM1) was subtracted to correct for differences in surface stability.” left out, “Regeneration of the Protein A surface was conducted using two injections of 10 mM glycine-HCL pH 1.5 followed by a stabilization period of 250 seconds.” left out"}},
  "note": "Numbering of substitutions follows the chain as printed. In names and notes the source's numbering stands.",
  "data": [
    {"binder": "B1", "values": [
      {"measurement": "binding result", "setting": "[1]", "value": "no binding"}
    ]},
    {"binder": "B2", "values": [
      {"measurement": "binding result", "setting": "[2]", "value": "no binding"},
      {"measurement": "binding result", "setting": "[3]", "value": "no binding"}
    ]},
    {"binder": "B3", "values": [
      {"measurement": "binding result", "setting": "[4]", "value": "no binding"},
      {"measurement": "binding result", "setting": "[2]", "value": "no binding"},
      {"measurement": "binding result", "setting": "[1]", "value": "no binding"},
      {"measurement": "binding result", "setting": "[3]", "value": "no binding"}
    ]},
    {"binder": "B4", "values": [
      {"measurement": "binding result", "setting": "[4]", "value": "no binding"},
      {"measurement": "binding result", "setting": "[1]", "value": "no binding"}
    ]}
  ]
}
